Assay results published in paper PMC10908835, “Alternative low-populated conformations prompt phase transitions in polyalanine repeat expansions” (Nature Communications, 2024).

Experiments:
[1] = target: the molecule itself; assay: NMR 15N spin relaxation (overall correlation time against that computed for the helix); 0.05 and 0.5 mM XS20, 0.5 mM XS23, 0.5 mM XS26 in NMR buffer (5 mM KPi, 10 mM NaCl, 2 mM β-mercaptoethanol, pH 6.8), 25 °C, 800 MHz
[2] = target: the molecule itself; assay: NMR 15N spin relaxation (overall correlation time against that computed for the helix); 0.5 mM 15N/13C XS20 in NMR buffer (5 mM KPi, 10 mM NaCl, 2 mM β-mercaptoethanol, pH 6.8), 5 °C, 800 MHz
[3] = target: T1, human HSP90β (named HSP90) (human, UniProt P08238 1-724); assay: NMR titration; 15N-HSQC signal intensity; 0.07 mM 15N/13C XS26 with fresh 0.14 mM unlabelled HSP70 or HSP90 (1:2), 25 °C, 20 mM Hepes, 10 mM NaCl, 5 mM MgCl2, 2 mM ATP, 1 mM DTT, pH 6.8; conditions: both partners purified
T1 construct: Unlabelled in the NMR titrations

[4] = target: T2, human HSP72 (named HSP70) (human, UniProt P0DMV8 1-641); assay: as above; conditions: both partners purified
T2 construct: Unlabelled in the NMR titrations; 2 mM ATP and 5 mM MgCl2 in the buffer
T2 sequence (P0DMV8 whole entry): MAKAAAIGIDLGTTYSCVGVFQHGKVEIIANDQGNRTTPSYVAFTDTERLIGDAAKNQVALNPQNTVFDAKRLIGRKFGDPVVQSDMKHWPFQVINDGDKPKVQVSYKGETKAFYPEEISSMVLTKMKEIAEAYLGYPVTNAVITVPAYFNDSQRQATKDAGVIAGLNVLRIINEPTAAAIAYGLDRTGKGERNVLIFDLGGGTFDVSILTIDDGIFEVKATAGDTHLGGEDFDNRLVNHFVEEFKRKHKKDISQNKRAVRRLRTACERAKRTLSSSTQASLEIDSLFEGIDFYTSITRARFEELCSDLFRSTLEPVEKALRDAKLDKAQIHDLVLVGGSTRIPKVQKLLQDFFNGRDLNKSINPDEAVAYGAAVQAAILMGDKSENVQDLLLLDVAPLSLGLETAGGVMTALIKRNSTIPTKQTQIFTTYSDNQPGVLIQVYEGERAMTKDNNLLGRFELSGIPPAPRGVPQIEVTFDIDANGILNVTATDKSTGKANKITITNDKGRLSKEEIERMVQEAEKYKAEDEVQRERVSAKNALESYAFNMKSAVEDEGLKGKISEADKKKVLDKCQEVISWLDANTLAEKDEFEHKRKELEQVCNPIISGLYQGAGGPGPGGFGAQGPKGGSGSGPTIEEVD

T1 sequence (P08238 whole entry): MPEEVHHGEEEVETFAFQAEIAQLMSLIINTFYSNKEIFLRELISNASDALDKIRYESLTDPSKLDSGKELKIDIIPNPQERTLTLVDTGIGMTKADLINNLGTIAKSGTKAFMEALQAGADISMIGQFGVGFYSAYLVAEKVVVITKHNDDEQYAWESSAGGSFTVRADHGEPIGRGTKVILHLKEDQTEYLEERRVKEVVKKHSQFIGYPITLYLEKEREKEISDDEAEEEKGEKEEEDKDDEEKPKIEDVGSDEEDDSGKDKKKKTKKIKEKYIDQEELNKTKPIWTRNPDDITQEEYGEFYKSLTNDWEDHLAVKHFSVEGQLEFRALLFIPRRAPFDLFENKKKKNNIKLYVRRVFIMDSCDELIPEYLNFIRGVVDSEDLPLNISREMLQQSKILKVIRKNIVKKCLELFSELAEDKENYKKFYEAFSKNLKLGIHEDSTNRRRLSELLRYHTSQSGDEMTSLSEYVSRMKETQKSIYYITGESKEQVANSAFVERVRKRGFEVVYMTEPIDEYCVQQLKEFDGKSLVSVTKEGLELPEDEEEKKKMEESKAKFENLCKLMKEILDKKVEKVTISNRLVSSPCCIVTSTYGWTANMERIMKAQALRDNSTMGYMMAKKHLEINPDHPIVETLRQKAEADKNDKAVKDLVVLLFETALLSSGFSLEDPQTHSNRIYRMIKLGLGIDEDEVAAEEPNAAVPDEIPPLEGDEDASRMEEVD

Binder	binding result [1]	binding result [2]	binding result [3]	binding result [4]
human PHOX2B fragment 228-314 with a +3 Ala expansion (XS23) (domain or fragment, UniProt Q99453 228-314, looked up, PHOX2B, human, residues 228-314 (wild-type numbering) with 3 alanines added to the 20-alanine tract (241-260); Made by mutagenic PCR; 15N/13C-labelled for NMR; also called +3 Ala variant; +3 PARM; not shown: Thioredoxin, N-terminal, cleaved; His6, N-terminal, cleaved) GPGGPGGEPGKGGAAAAAAAAAAAAAAAAAAAAAAAGGLAAAGGPGQGWAPGPGPITSIPDSLGGPFASVLSSLQRPNGAKAALVKSSMF	binds	–	–	–
human PHOX2B fragment 228-314 (XS20) (domain or fragment, UniProt Q99453 228-314, looked up, Paired mesoderm homeobox protein 2B (PHOX2B), human, residues 228-314, holds the 20-alanine tract (residues 241-260); 15N/13C-labelled for NMR; also called PHOX2B C-terminal fragment; wild-type PHOX2B; not shown: Thioredoxin, N-terminal, cleaved; His6, N-terminal, cleaved) GPGGPGGEPGKGGAAAAAAAAAAAAAAAAAAAAGGLAAAGGPGQGWAPGPGPITSIPDSLGGPFASVLSSLQRPNGAKAALVKSSMF	–	binds	–	–
human PHOX2B fragment 228-314 with a +6 Ala expansion (XS26) (domain or fragment, UniProt Q99453 228-314, looked up, Made by mutagenic PCR; 15N/13C-labelled for NMR titrations; also called +6 Ala variant; expanded PHOX2B; not shown: Thioredoxin, N-terminal, cleaved; His6, N-terminal, cleaved) GPGGPGGEPGKGGAAAAAAAAAAAAAAAAAAAAAAAAAAGGLAAAGGPGQGWAPGPGPITSIPDSLGGPFASVLSSLQRPNGAKAALVKSSMF	binds	–	binds	binds
